According to patent JP2007530675A (dated 2007):

B1: Luc90 (antibody, V domains shown)
VH: QVQLQQPGAELVRPGASVKLSCKASGYSFTTYWMNWVKQRPGQGLEWIGMIHPSDSETRLNQKFKDKATLTVDKSSSTAYMQLSSPTSEDSAVYYCARSTMIATRAMDYWGQGTSVTVSS
VL: DIVMTQSQKSMSTSVGDRVSITCKASQDVITGVAWYQQKPGQSPKLLIYSASYRYTGVPDRFTGSGSGTDFTFTISNVQAEDLAVYYCQQHYSTPLTFGAGTKLELK
notes: mouse anti-human CS1 monoclonal, IgG2b; also called Luc90.H1; Luc90H1
B2: Luc34 (antibody, V domains shown)
VH: QVQLQQSGAELARPGASVKLSCKASGYTFTSYWMQWVKQRPGQGLEWIGAIYPGDGDTRYTQKFKGKATLTADKSSSTAYMQLSSLASEDSAVYYCARGKVYYGSNPFAYWGQGTLVTVSA
VL: DIQMTQSSSYLSVSLGGRVTITCKASDHINNWLAWYQQKPGNAPRLLISGATSLETGVPSRFSGSGSGKDYTLSITSLQTEDVATYYCQQYWSTPWTFGGGTKLEIK
notes: mouse anti-human CS1 monoclonal; also called Luc34.1
B3: HuLuc63 (antibody, human IgG1, V domains shown)
VH: EVQLVESGGGLVQPGGSLRLSCAASGFDFSRYWMSWVRQAPGKGLEWIGEINPDSSTINYAPSLKDKFIISRDNAKNSLYLQMNSLRAEDTAVYYCARPDGNYWYFDVWGQGTLVTVSS
VL: DIQMTQSPSSLSASVGDRVTITCKASQDVGIAVAWYQQKPGKVPKLLIYWASTRHTGVPDRFSGSGSGTDFTLTISSLQPEDVATYYCQQYSSYPYTFGQGTKVEIK
notes: human IgG1/κ, transiently expressed in 293-H cells; also called humanized Luc63
B4: Luc63 (antibody, V domains shown)
VH: EVKLLESGGGLVQPGGSLKLSCAASGFDFSRYWMSWVRQAPGKGLEWIGEINPDSSTINYTPSLKDKFIISRDNAKNTLYLQMSKVRSEDTALYYCARPDGNYWYFDVWGAGTTVTVSS
VL: DIVMTQSHKFMSTSVGDRVSITCKASQDVGIAVAWYQQKPGQSPKLLIYWASTRHTGVPDRFTGSGSGTDFTLTISNVQSEDLADYFCQQYSSYPYTFGGGTKLEIK
notes: mouse anti-human CS1 monoclonal, IgG2a; also called MuLuc63; muLuc63
B5: Luc69 (antibody, V domains shown)
VH: QVQLQQSGPELVKPGASVKISCKASGYAFSNSWMNWVKQRPGQGLEWIGRIYPGDGDTKSNGKFKGKATLTADKSSRAAYMQLSSLTSVDSAVYFCARSTMIMTGAMDYWGQGTSVTVSS
VL: DIVMTQSHKFMSTSVGDRVIITCKASQDVSTAVAWYQQKPGQSPKLLIYSASFRYTGVPDRFTGSGSGTDFTFTVSSVQAEDLAVYYCQQHYSTPPYTFGGGTKLEIK
notes: mouse anti-human CS1 monoclonal

Legend:
[1] = molecular target: human CS1-Fc fusion protein (Biacore analyte) (human) (UniProt Q9NQ25); experiment: SPR (BIAcore 2000), antibody immobilised, CS1-Fc as analyte, bivalent analyte model
CS1 ECD-myc-GPI [2] = molecular target: T1, CS1 ECD-myc-GPI (human, UniProt Q9NQ25 23-226, GPI linkage at the C-terminus); experiment: cell-based or functional assay
[3] = molecular target: T2, hu25/mu75 chimeric CS1-Fc (human/mouse chimera; human, UniProt P01857-1 99-330 = IgG part, limits assumed); experiment: sandwich ELISA, captured chimeric CS1-Fc
T2 construct: domain: Fc
T2 sequence (P01857 other isoform, or with tags, fused parts or gaps mutant limits assumed): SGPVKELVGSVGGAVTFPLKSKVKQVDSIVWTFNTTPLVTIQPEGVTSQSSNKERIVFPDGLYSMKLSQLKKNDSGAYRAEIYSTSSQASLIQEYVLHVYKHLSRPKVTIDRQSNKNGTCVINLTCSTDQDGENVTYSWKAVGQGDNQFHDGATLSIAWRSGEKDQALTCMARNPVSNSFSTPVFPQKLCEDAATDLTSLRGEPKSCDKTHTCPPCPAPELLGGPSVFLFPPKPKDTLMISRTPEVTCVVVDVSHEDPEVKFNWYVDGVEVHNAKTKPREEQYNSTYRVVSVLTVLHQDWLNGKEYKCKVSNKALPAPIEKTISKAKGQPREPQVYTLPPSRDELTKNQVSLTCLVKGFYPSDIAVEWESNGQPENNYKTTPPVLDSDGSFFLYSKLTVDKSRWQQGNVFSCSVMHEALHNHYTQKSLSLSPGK

[4] = molecular target: T3, mu25/hu75 chimeric CS1-Fc (human/mouse chimera; human, UniProt P01857-1 99-330 = IgG part, limits assumed); experiment: sandwich ELISA, captured chimeric CS1-Fc
T3 construct: domain: Fc
T3 sequence (P01857 other isoform, or with tags, fused parts or gaps mutant limits assumed): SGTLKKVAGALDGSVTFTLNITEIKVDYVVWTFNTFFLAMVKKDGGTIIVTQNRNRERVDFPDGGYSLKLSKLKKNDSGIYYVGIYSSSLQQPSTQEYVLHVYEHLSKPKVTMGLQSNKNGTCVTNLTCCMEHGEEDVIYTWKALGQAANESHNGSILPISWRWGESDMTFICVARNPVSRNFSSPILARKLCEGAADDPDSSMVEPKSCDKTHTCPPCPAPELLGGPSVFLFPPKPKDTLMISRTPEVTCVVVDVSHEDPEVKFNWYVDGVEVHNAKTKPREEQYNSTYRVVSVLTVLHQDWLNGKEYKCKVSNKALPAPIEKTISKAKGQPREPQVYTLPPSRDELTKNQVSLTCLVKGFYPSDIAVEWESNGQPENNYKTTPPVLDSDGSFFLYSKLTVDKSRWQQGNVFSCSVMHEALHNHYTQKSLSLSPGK

[5] = molecular target: T4, full-length wild-type human CS1 (human, UniProt Q9NQ25 23-335); experiment: FACS on K562 and Daudi cells
T4 construct: Native CS1 on K562 and Daudi cells, myeloma and B-cell lines, tonsil/synovial and patient plasma cells; also called SLAMF7; 19A

CS1 ECD-myc-GPI [6] = molecular target: T1, CS1 ECD-myc-GPI; experiment: FACS on NSO-CS1 transfectants
[7] = molecular target: T5, CS1 ECD-Fcγ3 fusion protein (human, UniProt Q9NQ25 23-226); experiment: ELISA on CS1-γ3 fusion protein
T5 construct: also called CS1-γ3; CS1-Fc-γ3; not shown: constant region of human IgG3 (human Fc-γ3) from the vector

[8] = molecular target: T6, human CS1-Fc fusion protein (Biacore analyte) (human, UniProt Q9NQ25 23-226, limits assumed); experiment: SPR (BIAcore 2000), antibody immobilised, CS1-Fc as analyte
T6 construct: kept apart; also called CS-Fc; not shown: Fc part

[9] = molecular target: T5, CS1 ECD-Fcγ3 fusion protein; experiment: direct binding ELISA, plate coated with 1 μg/ml soluble human CS1-human Fcγ3 fusion protein

Binder | binding result [3] | binding result [4] | EC50 [9] [µg/mL] | also measured
B1 | no binding (tested: 2 μg/ml) | no binding (tested: 2 μg/ml) |  | fold higher binding affinity than Luc34.1 [1]: 28 fold; fold higher binding affinity than Luc63.2 [1]: 5.5 fold; 細胞傷害性(%) (ADCC, LDH release, PBMC effectors 20:1) (CS1 ECD-myc-GPI [2]): ~50%
B2 | no binding (tested: 2 μg/ml) | no binding (tested: 2 μg/ml) |  | binding result [5]: binds; binding result (CS1 ECD-myc-GPI [6]): binds; binding result [7]: binds; binding result [8]: binds
B3 |  |  | 0.0701 | 
B4 |  |  | 0.0661 | 
B5 | no binding (tested: 2 μg/ml) | no binding (tested: 2 μg/ml) |  | 
